Source: the supplement of paper PMC9170038

Tested on: MS2 coat protein
Experiment: apparent KD of MS2 coat protein; designed switch direction (-1 OFF switch, 1 ON switch): -1; higher = weaker reporter binding
Outline: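 Designed RNA switches with common flanks were made on Illumina chips by stalled E. coli RNA polymerase. Titration with SNAP-549-labelled MS2 coat protein doubled from 0.7 or 1.5 nM up to 3 µM. Apparent KD is each design's median over clusters after curve-fitting normalised fluorescence.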

[1] = Eterna round: R95, input ligand: FMN 200 uM
[2] = Eterna round: R95, input ligand: microRNA oligo, concentration not stated
[3] = Eterna round: R95, input ligand: none
[4] = input ligand: microRNA oligo, concentration not stated

GAGAGAUAGAUAGAGGACGACAUGAGGAUCACCCAUGUGAGGGAAAUGUUAAGGAGAAAGCUUUUUGCUCGUCUUAA [JR_SV3TOV1_Sub034] (puzzle: Sensor v3, turn-off variant 1)
apparent KD of MS2 coat protein [1]: 123 nM | apparent KD of MS2 coat protein [2]: 57.7 nM | apparent KD of MS2 coat protein [3]: 152 nM

AAGAGUAGAGGAUAUACGAAAAAAGAGUCGAAAGACUCGGGACAUGAGGAUCACCCAUGUAGAAGGCUACUCAA [Hyphema Seclusion Mod 62% 5] (Eterna round: R96, puzzle: Exclusion 2)
apparent KD of MS2 coat protein [4]: 19.4 nM

UUAAAUCAUGUAGGAUAUGCGUGGCGAAGCUAUGCAGAAGGACAUGAGGAUCACCCAUGUUCUAGCGUCCGCGUACGGAUGCAA [JL Eng1 1.21 mod 10] (Eterna round: R96, puzzle: Exclusion NG 1)
apparent KD of MS2 coat protein (input ligand: FMN 200 uM): 144 nM | apparent KD of MS2 coat protein [4]: 12 nM | apparent KD of MS2 coat protein (input ligand: none): 18.6 nM

GUCUCGUGAGGAUAUCAUGAUUGACUUAAUUUAUUUUAGCGUGAGAAGGCACAUGAGGAUCACCCAUGUGAUUC [Ex4 - 3 - 5] (puzzle: Exclusion 4)
apparent KD of MS2 coat protein [2]: 17.1 nM

AUUUAAUUUAAUAAGAUCACAUGAGGAUCACCCAUGUAUAUAUAGGAUAUCAGCUCGUGUAGAGCUGAGAAGGAUAUAUACUAU [ExNG3/7-B3] (Eterna round: R96, puzzle: Exclusion NG 3)
apparent KD of MS2 coat protein [4]: 266 nM

UAAUAAAGUGUGAGGAUAUGCUGGUCCAUAGAUCAGCAGAAGGCACAUGAGGAUCACCCAUGUAAUAUAUAAAU [Mat - Exclusion 4 - JL Mod - D57] (puzzle: Brourd's mod of Exclusion 4)
apparent KD of MS2 coat protein [1]: 199 nM | apparent KD of MS2 coat protein [2]: 27.5 nM | apparent KD of MS2 coat protein [3]: 24.5 nM

CGGCAAUCCUAGGAUAUGCUAGACGAGAGUCUAGCAGAAGGAGGAACAUGAGGAUCACCCAUGUGUCCUAGCCG [Mat - Exclusion 6 - Eli Mod - D15] (Eterna round: R97, puzzle: Exclusion 6)
apparent KD of MS2 coat protein (input ligand: FMN 200 uM): 22.1 nM | apparent KD of MS2 coat protein (input ligand: none): 15.6 nM

CUGUAGCUAUGAGGAUAUGCCACAAAAGUAGUUGCAGAAGGCAUCCCUACCCAGUAAGAACAUGAGGAUCACCCAUGUGAUCUG [Eternabot solution 43] (Eterna round: R96, puzzle: Exclusion NG 1)
apparent KD of MS2 coat protein (input ligand: FMN 200 uM): 71.6 nM | apparent KD of MS2 coat protein [4]: 44.5 nM | apparent KD of MS2 coat protein (input ligand: none): 63.4 nM

GCUUGUGUUGAGGAUAUGCGCCGGCUCGCUGGCGCAGAAGGCGGCACAUGAGGAUCACCCAUGUCAGUUCGCGG [salish99_ex6_r004_009] (Eterna round: R97, puzzle: Exclusion 6)
apparent KD of MS2 coat protein (input ligand: FMN 200 uM): 321 nM | apparent KD of MS2 coat protein (input ligand: none): 93.8 nM

UUUUUGUCAGGAUAUACGUAGUAGAACAAUAGUACUACUACGUAGAAGGGACAUGAGGAUCACCCAUGUUCCUC [Fiskers Ex 4 Super stable 44 mod 16] (puzzle: Exclusion 4)
apparent KD of MS2 coat protein [2]: 16 nM

AAAAUACAUGAGGAUCACCCAUGUGAGGAUAUGAGAGUCAUUUAUAUAUAUUAGAUUCUCAGAAGGCACAUAAA [JR_Ex1_Sub068] (Eterna round: R97, puzzle: Exclusion 1)
apparent KD of MS2 coat protein (input ligand: FMN 200 uM): 211 nM | apparent KD of MS2 coat protein (input ligand: none): 53.7 nM

CGUUGUAUAGGAUAUACAUGAGGAUCACCCAUGUGAAAUUAUAGUGAGGAAAUGAAAAGUAGAAGGGUAUGACA [Mod of Mat 7 - Jieux - Exclusion 3] (Eterna round: R97, puzzle: Exclusion 3)
apparent KD of MS2 coat protein (input ligand: FMN 200 uM): 35.5 nM | apparent KD of MS2 coat protein (input ligand: none): 45.3 nM

UGUGCUUCAGGAUAUACGUGACGUCCGUGAGGACGAAGGUUACAUGAGGAUCACCCAUGUAGAAGGGAAGUACU [Mat - Exclusion 2 - JL Mod - D30] (Eterna round: R97, puzzle: Exclusion 2)
apparent KD of MS2 coat protein (input ligand: FMN 200 uM): 110 nM | apparent KD of MS2 coat protein (input ligand: none): 20.2 nM

UCAGGCGAUGUCAGGAUAUCGGCUGCCCAAUUGGCUGAGAAGGGACAUGAGGAUCACCCAUGUUAGAUCCAGCC [BmEX4 A.25] (Eterna round: R97, puzzle: Brourd's mod of Exclusion 4)
apparent KD of MS2 coat protein (input ligand: FMN 200 uM): 30.2 nM | apparent KD of MS2 coat protein (input ligand: none): 16.9 nM

UUUUAACAUGAGGAUCACCCAUGUGAGGAUAUCGAAAUUUAUAUUAAUAUUAUUAAAUCGAGAAGGCACAUUUU [JMF 36] (puzzle: Exclusion 1)
apparent KD of MS2 coat protein [2]: 104 nM

GUUGCGUUUGUGAGGAUAUGCUGGUCCUUGGUUCGGCAGAAGGCACAUGAGGAUCACCCAUGUGGUGUCGUUCC [salish99_Bmod_ex4_051] (puzzle: Brourd's mod of Exclusion 4)
apparent KD of MS2 coat protein [2]: 13.3 nM

AAUAAUAAGGAGGAUAUCGUAUCCGAAAGGAUACGAGAAGGCCUAACAUGAGGAUCACCCAUGUUCCUCAAUAA [Mat - Exclusion 6 - Eli Mod - D54] (puzzle: Exclusion 6)
apparent KD of MS2 coat protein [1]: 773 nM | apparent KD of MS2 coat protein [2]: 264 nM | apparent KD of MS2 coat protein [3]: 267 nM

CUCUCUCGAGGAUAUACCGUAUGGUGGAAUCUCCUCGGAAGACAUGAGGAUCACCCAUGUAGAAGGCGAGAUGG [Eternabot (L2) Solution 64] (Eterna round: R97, puzzle: Exclusion 2)
apparent KD of MS2 coat protein (input ligand: FMN 200 uM): 144 nM | apparent KD of MS2 coat protein (input ligand: none): 31.3 nM

AUUUACAAGCUAAGAUCCUACAUGAGGAUCACCCAUGUGGUCCGGUGACGUGAGUCACCGGACUUAGCUCGUCUUGC [salish99_S_TOV1_R5_084] (Eterna round: R97, puzzle: Sensor, turn-off variant 1)
apparent KD of MS2 coat protein (input ligand: FMN 200 uM): 37.2 nM | apparent KD of MS2 coat protein (input ligand: none): 38.1 nM

UAAUAAAGUGUGAGGAUAUGCUGGUCCAUAGAUCAGCAGAAGGCACAUGAGGAUCACCCAUGUAAUAUAUAAAU [Mat - Exclusion 4 - JL Mod - D57] (Eterna round: R96, puzzle: Brourd's mod of Exclusion 4)
apparent KD of MS2 coat protein [4]: 23.7 nM

CUUAGGUGAGGAUAUUAGUAGUAAAUAAAUAAAAUUAUUACUGAGAAGGCACAUGAGGAUCACCCAUGUUCCUC [Salish 062 v3] (Eterna round: R97, puzzle: Exclusion 4)
apparent KD of MS2 coat protein (input ligand: FMN 200 uM): 548 nM | apparent KD of MS2 coat protein (input ligand: none): 37 nM

GGCCUUCCGCGAGCUUUUUACAUGAGGAUCACCCAUGUGGUUUUUAGUCUUAUCCCGGGCCCGGUGUCGGGCCCGGG [-32.9, -53.8, A 12%] (Eterna round: R97, puzzle: Sensor, turn-off variant 1)
apparent KD of MS2 coat protein (input ligand: FMN 200 uM): 29.8 nM | apparent KD of MS2 coat protein (input ligand: none): 30.2 nM

AAAAGAAGUGUUAGGAUAUGUGUAAGUAGAAAGACACAGAAGGAACAUGAGGAUCACCCAUGUGGCCAAAGAAC [Vesotila] (puzzle: Brourd's mod of Exclusion 4)
apparent KD of MS2 coat protein [1]: 38.7 nM | apparent KD of MS2 coat protein [2]: 14.1 nM | apparent KD of MS2 coat protein [3]: 13.6 nM

UACAUGAGGAUCACCCAUGUUUUGUCGUGUAUGGUAUUUAUCUAGGAUAUCAUUUUAUUUAUUUAUGAGAAGGAGAAUAUUAAU [JMF's solution 6] (Eterna round: R96, puzzle: Exclusion NG 3)
apparent KD of MS2 coat protein (input ligand: FMN 200 uM): 49.4 nM | apparent KD of MS2 coat protein [4]: 27 nM | apparent KD of MS2 coat protein (input ligand: none): 37.2 nM

CUUUAGUGAGGAUAUCGGUAGUAAUACAAUAGUAUUACUACUGAGAAGGCACAUGAGGAUCACCCAUGUUCCUC [Mat - Exclusion 4 - Mod of Omei - D82] (Eterna round: R96, puzzle: Exclusion 4)
apparent KD of MS2 coat protein (input ligand: FMN 200 uM): 259 nM | apparent KD of MS2 coat protein [4]: 25.2 nM | apparent KD of MS2 coat protein (input ligand: none): 29.9 nM

AAUUAGUGUGUGAGGAUAUUGGUGGAAUGACUUAUUAAGAAGGCACAUGAGGAUCACCCAUGUGGGAAGUCACG [JR_BMEx4_Sub014] (Eterna round: R97, puzzle: Brourd's mod of Exclusion 4)
apparent KD of MS2 coat protein (input ligand: FMN 200 uM): 10.1 nM | apparent KD of MS2 coat protein (input ligand: none): 12 nM

GGAUUGUCAGGAUAUCUUAUACUUCAUAAGUGAGGAUAAAUAGAGAAGGGACAUGAGGAUCACCCAUGUAAUAA [Exclusion 4 S1] (Eterna round: R97, puzzle: Exclusion 4)
apparent KD of MS2 coat protein (input ligand: FMN 200 uM): 152 nM | apparent KD of MS2 coat protein (input ligand: none): 36.8 nM

CCAGAGUGAGGAUAUGCAUAAAGGUGCUGUCCCGUGGCUUGACAUGAGGAUCACCCAUGUAGAAGGUGCGUUGU [Raonra] (Eterna round: R96, puzzle: Exclusion 2)
apparent KD of MS2 coat protein (input ligand: FMN 200 uM): 51.6 nM | apparent KD of MS2 coat protein [4]: 35.6 nM | apparent KD of MS2 coat protein (input ligand: none): 54.4 nM

AGUGUGAUAGGAUAUACAUGAGGAUCACCCAUGUGAAUGGUAAUGUGUCCAAGAUCAGGUAGAAGGGUCGGGUU [Eternabot (L1) Solution 56] (Eterna round: R97, puzzle: Exclusion 3)
apparent KD of MS2 coat protein (input ligand: FMN 200 uM): 83.6 nM | apparent KD of MS2 coat protein (input ligand: none): 101 nM

AUAUUGUGAGGAUAUGAUCUUAGUAUCGAAAGAUACUAAGUUCAGAAGGCACAUGAGGAUCACCCAUGUUUCUC [Long static hairpin v14] (Eterna round: R97, puzzle: Exclusion 4)
apparent KD of MS2 coat protein (input ligand: FMN 200 uM): 982 nM | apparent KD of MS2 coat protein (input ligand: none): 70.6 nM

CUUUUGUGAGGAUAUCAGUAGUAAAAAAAUAUAAUUACUACUGAGAAGGCACAUGAGGAUCACCCAUGUUCCUC [salish99_ex4_r3_023] (puzzle: Exclusion 4)
apparent KD of MS2 coat protein [2]: 40.1 nM

AAAGAUGGAGGAUAUACAUGAGGAUCACCCAUGUAGAAAAAAAAUUGGGAAAAAGAAAGUAGAAGGCCAAAAAA [Ex 3 May 43] (Eterna round: R96, puzzle: Exclusion 3)
apparent KD of MS2 coat protein (input ligand: FMN 200 uM): 67.6 nM | apparent KD of MS2 coat protein [4]: 25.6 nM | apparent KD of MS2 coat protein (input ligand: none): 36.5 nM

AAGUACCGUCACGAAAGUGAUGGUACAGCAAGUAAAUGUACAUGAGGAUCACCCAUGUCCUCAAUUGCUCGUCUUAU [Sensor 3 - 59] (puzzle: Sensor v3, turn-off variant 2)
apparent KD of MS2 coat protein [1]: 185 nM | apparent KD of MS2 coat protein [2]: 173 nM | apparent KD of MS2 coat protein [3]: 212 nM

ACCUAUGAGGAGGAUAUACGGUGCGAAAGGAUGGUAGAAGGCUUCACAUGAGGAUCACCCAUGUCUAUAAGCGA [EX6 #87] (Eterna round: R97, puzzle: Exclusion 6)
apparent KD of MS2 coat protein (input ligand: FMN 200 uM): 27.8 nM | apparent KD of MS2 coat protein (input ligand: none): 18.3 nM
